For one experiment, the target named is T1, IL12Rβ-Fc chimera (human, UniProt P42701 24-545).
T1 construct: interleukin 12 receptor subunit beta 1, human; The materials name it 'IL12Rβ-Fc chimera'; the assay and results name IL12Rβ1 / hIL12Rβ1; also called IL12Rβ1; hIL12Rβ1; source: bought: R&D Systems Inc
Put plainly: AlphaScreen or HTRF; serial dilutions of purified nanobody (250 nM to 1 pM) preincubated with 500 pM biotinylated hIL23 or 3 nM biotinylated hIL12; IL23R or IL12Rβ1 on acceptor beads via an antihuman Fc monoclonal antibody; streptavidin donor beads; 1 h at room temperature. The settings on record: both partners purified.

Experiment [1] deals with T2, p40 subunit of human interleukin 23 (human, UniProt P29460 23-328, saccharidic chain of the complex type at Asn 200 (GlcNAc2-Man3 core seen in the crystal)).
T2 construct: p40 subunit shared by IL12 and IL23, human; never handled apart from p19; also called IL12-shared p40 subunit; source: bought as part of hIL23 (R&D Systems Inc. or eBioscience)
T2 sequence (looked up): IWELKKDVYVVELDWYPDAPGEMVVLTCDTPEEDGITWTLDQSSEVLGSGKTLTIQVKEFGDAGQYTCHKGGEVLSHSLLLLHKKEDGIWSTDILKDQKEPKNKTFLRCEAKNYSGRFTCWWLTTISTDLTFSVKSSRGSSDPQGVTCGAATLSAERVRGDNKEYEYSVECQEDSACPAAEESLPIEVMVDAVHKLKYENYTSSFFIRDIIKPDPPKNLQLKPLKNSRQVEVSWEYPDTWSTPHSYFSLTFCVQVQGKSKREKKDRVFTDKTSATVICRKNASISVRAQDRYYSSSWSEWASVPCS
Put plainly: crystal structure; hIL23 with nanobodies 37D5, 124C4 and 22E11; sitting drop, 277 K, 16.5% PEG 20 K, 0.1 M MES pH 5.9; two complexes per asymmetric unit; PDB 4GRW. The settings on record: both partners purified.

Experiment [2] addresses T3, biotinylated human interleukin 23 (human, UniProt Q9NPF7 20-189; P29460 23-328, biotin (Sulfo-NHS-LC-Biotin; sites not stated) | biotin (Sulfo-NHS-LC-Biotin; sites not stated)).
T3 construct: interleukin 23 subunit p19, human; p40 subunit shared by IL12 and IL23, human; also called biotinylated hIL23; source: bought: eBioscience; biotinylated using Sulfo-NHS-LC-Biotin (Pierce)
T3 sequence (looked up) 1: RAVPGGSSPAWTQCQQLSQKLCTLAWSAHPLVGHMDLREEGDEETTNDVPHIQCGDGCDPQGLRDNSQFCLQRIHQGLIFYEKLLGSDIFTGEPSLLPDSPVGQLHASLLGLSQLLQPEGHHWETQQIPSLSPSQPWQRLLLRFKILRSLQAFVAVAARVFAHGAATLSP
T3 sequence (looked up) 2: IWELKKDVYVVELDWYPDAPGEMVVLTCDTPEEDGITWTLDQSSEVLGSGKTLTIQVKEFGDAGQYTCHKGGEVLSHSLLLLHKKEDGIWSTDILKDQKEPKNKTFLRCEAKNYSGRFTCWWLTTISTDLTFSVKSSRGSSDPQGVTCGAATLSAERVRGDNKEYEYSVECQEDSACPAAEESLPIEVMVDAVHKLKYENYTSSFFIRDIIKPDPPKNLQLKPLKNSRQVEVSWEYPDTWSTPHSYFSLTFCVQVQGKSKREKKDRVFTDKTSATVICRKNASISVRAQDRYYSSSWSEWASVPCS
Put plainly: AlphaScreen or HTRF; serial dilutions of purified nanobody (250 nM to 1 pM) preincubated with 500 pM biotinylated hIL23 or 3 nM biotinylated hIL12; IL23R or IL12Rβ1 on acceptor beads via an antihuman Fc monoclonal antibody; streptavidin donor beads; 1 h at room temperature. The settings on record: both partners purified. (In Alpha technology, singlet oxygen from a donor bead excites a nearby acceptor bead.)

The next experiment deals with human interleukin 12 (human, UniProt P29459;P29460). Kind of experiment: cell-based or functional assay.
For experiment [3], the target named is T4, human interleukin 23 (Homo sapiens, UniProt Q9NPF7;P29460, saccharidic chain of the complex type at Asn 200 (GlcNAc2-Man3 core seen in the crystal)). Kind of experiment: cell-based or functional assay.
The target of experiment [4] is T5, cynomolgus monkey (cyno) IL23 (Macaca fascicularis (cynomolgus monkey), UniProt H6WS56;H6WS55).
T5 construct: interleukin 23 subunit p19, cynomolgus monkey; construct not described; p40 subunit, cynomolgus monkey; source: produced at Ablynx, Ghent/Zwijnaarde, Belgium
Put plainly: SPR; species cross-reactivity of the monovalent nanobodies on cyno IL23 and mouse IL23; off-rates compared; set-up not described. (In general: In SPR one partner is held on a chip, and binding of the other changes the refractive index at the surface.)

The next experiment deals with T6, mouse (m) IL23 (Mus musculus (Mouse)., UniProt Q9EQ14;P43432).
T6 construct: interleukin 23 subunit p19, mouse; p40 subunit, mouse; source: bought: R&D Systems Inc
T6 sequence (Q9EQ14 22-196, chain 1 of 2): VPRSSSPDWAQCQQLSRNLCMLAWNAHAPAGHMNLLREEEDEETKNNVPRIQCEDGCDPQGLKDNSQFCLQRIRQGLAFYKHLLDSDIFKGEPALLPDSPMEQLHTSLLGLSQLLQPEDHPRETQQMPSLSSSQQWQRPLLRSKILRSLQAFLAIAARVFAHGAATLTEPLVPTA
T6 sequence (P43432 23-335, chain 2 of 2): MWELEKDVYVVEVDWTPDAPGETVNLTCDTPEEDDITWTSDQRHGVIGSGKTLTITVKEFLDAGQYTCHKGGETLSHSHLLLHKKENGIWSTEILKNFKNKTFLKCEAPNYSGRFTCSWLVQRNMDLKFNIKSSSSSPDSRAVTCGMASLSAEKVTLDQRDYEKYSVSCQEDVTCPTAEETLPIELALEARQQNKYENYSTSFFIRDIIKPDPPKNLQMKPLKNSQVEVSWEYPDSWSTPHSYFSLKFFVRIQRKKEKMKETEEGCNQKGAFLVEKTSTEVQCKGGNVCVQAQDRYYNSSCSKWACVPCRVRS
The experiment is described as above.

Experiment [5] deals with T4, human interleukin 23. Put plainly: SPR; Biacore T100; hIL23 covalently bound to a CM5 chip via amine coupling; purified nanobodies 1 to 300 nM injected for 4 min at 45 µl/min. The following applies: both partners purified.
Experiment [6] concerns the target T7, p40 subunit of human interleukin 23 (human, UniProt P29460, saccharidic chain of the complex type at Asn 200 (GlcNAc2-Man3 core seen in the crystal)).
T7 construct: p40 subunit shared by IL12 and IL23, human; never handled apart from p19; also called IL12-shared p40 subunit; source: bought as part of hIL23 (R&D Systems Inc. or eBioscience)
Kind of experiment: crystal structure; hIL23 with nanobodies 37D5, 124C4 and 22E11; sitting drop, 277 K, 16.5% PEG 20 K, 0.1 M MES pH 5.9; two complexes per asymmetric unit; PDB 4GRW. The settings on record: both partners purified.

Experiment [7] addresses T8, biotinylated human interleukin 12 (human, UniProt P29459;P29460, biotin (Sulfo-NHS-LC-Biotin; sites not stated) | biotin (Sulfo-NHS-LC-Biotin; sites not stated)).
T8 construct: p35 subunit of IL12, human; p40 subunit shared by IL12 and IL23, human; also called biotinylated hIL12; source: bought: R&D Systems Inc; biotinylated using Sulfo-NHS-LC-Biotin (Pierce)
Put plainly: AlphaScreen or HTRF; serial dilutions of purified nanobody (250 nM to 1 pM) preincubated with 500 pM biotinylated hIL23 or 3 nM biotinylated hIL12; IL23R or IL12Rβ1 on acceptor beads via an antihuman Fc monoclonal antibody; streptavidin donor beads; 1 h at room temperature. The settings on record: both partners purified.

The target in experiment [8] is T9, biotinylated human interleukin 23 (human, UniProt Q9NPF7;P29460, biotin (Sulfo-NHS-LC-Biotin; sites not stated) | biotin (Sulfo-NHS-LC-Biotin; sites not stated)).
T9 construct: interleukin 23 subunit p19, human; p40 subunit shared by IL12 and IL23, human; also called biotinylated hIL23; source: bought: eBioscience; biotinylated using Sulfo-NHS-LC-Biotin (Pierce)
Described as above. The settings on record: both partners purified.

This is an account of results in PMC5566574 (Frontiers in Immunology, 2017).

B1: biotinylated human interleukin 12 (complex)
chain 1: RNLPVATPDPGMFPCLHHSQNLLRAVSNMLQKARQTLEFYPCTSEEIDHEDITKDKTSTVEACLPLELTKNESCLNSRETSFITNGSCLASRKTSFMMALCLSSIYEDLKMYQVEFKTMNAKLLMDPKRQIFLDQNMLAVIDELMQALNFNSETVPQKSSLEEPDFYKTKIKLCILLHAFRIRAVTIDRVMSYLNAS
chain 2: IWELKKDVYVVELDWYPDAPGEMVVLTCDTPEEDGITWTLDQSSEVLGSGKTLTIQVKEFGDAGQYTCHKGGEVLSHSLLLLHKKEDGIWSTDILKDQKEPKNKTFLRCEAKNYSGRFTCWWLTTISTDLTFSVKSSRGSSDPQGVTCGAATLSAERVRGDNKEYEYSVECQEDSACPAAEESLPIEVMVDAVHKLKYENYTSSFFIRDIIKPDPPKNLQLKPLKNSRQVEVSWEYPDTWSTPHSYFSLTFCVQVQGKSKREKKDRVFTDKTSATVICRKNASISVRAQDRYYSSSWSEWASVPCS
modifications: biotin (Sulfo-NHS-LC-Biotin; sites not stated) | biotin (Sulfo-NHS-LC-Biotin; sites not stated)
notes: p35 subunit of IL12, human; p40 subunit shared by IL12 and IL23, human; also called biotinylated hIL12; source: bought: R&D Systems Inc; biotinylated using Sulfo-NHS-LC-Biotin (Pierce)
Turning to B1, the binding result with IL12Rβ-Fc chimera was “binds”.

B2: p19 subunit of human interleukin 23 (natural protein, UniProt Q9NPF7 20-189, looked up)
chain: RAVPGGSSPAWTQCQQLSQKLCTLAWSAHPLVGHMDLREEGDEETTNDVPHIQCGDGCDPQGLRDNSQFCLQRIHQGLIFYEKLLGSDIFTGEPSLLPDSPVGQLHASLLGLSQLLQPEGHHWETQQIPSLSPSQPWQRLLLRFKILRSLQAFVAVAARVFAHGAATLSP
notes: interleukin 23 subunit p19, human; never handled apart from p40; also called IL23p19; hIL23 p19 subunit; source: bought as part of hIL23 (R&D Systems Inc. or eBioscience)
With B2, the binding result in experiment [1] is given as “binds”.

B3: hIL23 receptor (R)-fragment crystallizable region (Fc) (Fc fusion, human, UniProt Q5VWK5 24-355, looked up)
chain: GITNINCSGHIWVEPATIFKMGMNISIYCQAAIKNCQPRKLHFYKNGIKERFQITRINKTTARLWYKNFLEPHASMYCTAECPKHFQETLICGKDISSGYPPDIPDEVTCVIYEYSGNMTCTWNAGKLTYIDTKYVVHVKSLETEEEQQYLTSSYINISTDSLQGGKKYLVWVQAANALGMEESKQLQIHLDDIVIPSAAVISRAETINATVPKTIIYWDSQTTIEKVSCEMRYKATTNQTWNVKEFDTNFTYVQQSEFYLEPNIKYVFQVRCQETGKRYWQPWSSLFFHKTPETVPQVTSKAFQHDTWNSGLTVASISTGHLTSDNRGDIG
notes: interleukin 23 receptor, human; also called hIL23R-Fc; source: bought: R&D Systems Inc
Regarding B3, the binding result in experiment [2] was “binds”.

B4: nanobody 22E11 (VHH)
VHH: EVQLVESGGGLVQAGGSLRLSCAASGRTFSWSAVGWFRQAPGKEREFVAAIRWSGGSPYYADSVKDRFTISRDNAKNTVYLQMNSLRPEDTAVYLCGETSLFPTSRGSHYDTWGQGTQVTVSS
notes: nanobody 22E11 (llama VHH); both add C-terminal c-myc and hexa-histidine tags; also called p40+ nanobody 22E11; source: E. coli TG1, periplasmic extract (screening); purified (Ni-NTA; Superdex75 for crystallization); not shown: c-myc, C-terminal, kept
Consider B4, for which the “IC50 of block of hIL12-dependent proliferation of PHA blasts (4 pM hIL12 for stimulation; data not shown)” value with human interleukin 12 is 95 pM. Besides, the “IC50 of inhibition of mIL22 secretion by mouse splenocytes stimulated with 19 pM hIL23” value in the experiment with human interleukin 23 [3] was determined as 186 pM. The binding result in experiment [4] is given as “binds”; with mouse (m) IL23, “no binding”; in experiment [6] it was “binds”. The koff (commonly the first-order rate constant of dissociation) with human interleukin 23 [5] came out at 0.00023 s⁻¹. For the same molecule, the IC50 (in general, the concentration that inhibits the measured activity by half) in experiment [7] is 1.3 nM.

B5: nanobody 124C4 (VHH)
VHH: EVQLVESGGGLVQPGGSLRLSCAASGFTLDDYAIAWFRQAPGKEREGVSGIDSGDGSAYYADSVKGRFTISSDNAKNTVYLQMNSLRPEDTAVYYCARVRTGWGLNAPDYAMDYWGKGTLVTVSS
notes: nanobody 124C4 (llama VHH); both add C-terminal c-myc and hexa-histidine tags; also called p19− nanobody 124C4; source: E. coli TG1, periplasmic extract (screening); purified (Ni-NTA; Superdex75 for crystallization); not shown: c-myc, C-terminal, kept
On to B5, for which the binding result (in [4]; with mouse (m) IL23; in [6]) was “binds” each time. Besides, the Kd – broadly, the free concentration of one partner at which half of the binding sites on the other are occupied at equilibrium, for simple one-to-one binding – with human interleukin 23 [5] is 3.3 nM. For the same molecule, the dissociation rate constant (koff) with human interleukin 23 [5] came to 0.00033 s⁻¹. The on-rate constant (kon) – broadly, a measure of how fast the partners come together – with human interleukin 23 [5] came to 100000 M⁻¹ s⁻¹.

B6: nanobody 37D5 (VHH)
VHH: EVQLVESGGGLVQPGGSLRLSCAASGFTLDYLAIGWFRQAPGKEREGVSCVSSSGQYTYYADSVKGRFTISRDNAESTVYLQMNSLKPEDTAVYYCATDPECYRVRGYYNGEYDYWGQGTQVTVSS
notes: nanobody 37D5 (llama VHH); both add C-terminal c-myc and hexa-histidine tags; also called p19+ nanobody 37D5; source: E. coli TG1, periplasmic extract (screening); purified (Ni-NTA; Superdex75 for crystallization); not shown: c-myc, C-terminal, kept
For B6, the “IC50 of inhibition of mIL22 secretion by mouse splenocytes stimulated with 19 pM hIL23; blocks IL23/IL23R” value with human interleukin 23 [3] was 19 pM. For the same molecule, the binding result in [4] is recorded as “binds”. In addition, the binding result with mouse (m) IL23 is “no binding”. In the experiment with human interleukin 23 [5], this molecule registered a dissociation constant Kd of 0.6 nM, a koff of 0.00018 s⁻¹ and a kon of 320000 M⁻¹ s⁻¹. Also, in [6], the binding result was “binds”. It took 0.11 nM to reach half-maximal inhibition in [8] (IC50).
